{"source": "patent US20030100489", "system": "p16"}
{"substance": "CDK2", "values": [{"measurement": "RB phosphorylation by CDK2-cyclin D2 complexes", "result": "No inhibition was observed when CDK2-cyclin D2 complexes were used in a similar assay"}]}
